We go through one molecule from paper PMC4077619, “Split luciferase complementation assay to detect regulated protein-protein interactions in rice protoplasts in a large-scale format” (Rice, 2014).

In this test the target is T1, CRLuc-H2B (Arabidopsis HISTONE 2B fused to the C-terminal fragment of Renilla luciferase) (Arabidopsis, UniProt Q9FFC0 1-145).
T1 construct: Arabidopsis HISTONE 2B (H2B), locus AT5G22880; cDNA inserted in a pDuEx vector; source: rice protoplasts, transformed (PEG) with a pDuEx vector (35S promoter), in cells
T1 sequence (Q9FFC0 whole entry, the tested form may be a part): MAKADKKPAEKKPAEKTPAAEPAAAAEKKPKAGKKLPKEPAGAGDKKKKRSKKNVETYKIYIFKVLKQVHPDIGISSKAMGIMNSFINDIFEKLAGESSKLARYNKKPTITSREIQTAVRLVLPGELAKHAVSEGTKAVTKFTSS
Kind of test: split reporter (BiFC, NanoBiT); split Renilla luciferase complementation in living rice protoplasts, 96-well plate, W5 buffer, ViviRen substrate, RLU read 16 h after transformation; no hormone added (before the hormone or with W5 buffer only); H2A-H2B also tested with GA3 (Figure S1), RLU not increased. The following applies: partners not purified.

B1: NRLuc-H2A (Arabidopsis HISTONE 2A fused to the N-terminal fragment of Renilla luciferase) (natural protein)
chain: not shown
notes: Arabidopsis HISTONE 2A (H2A), locus AT4G27230; cDNA inserted in a pDuEx vector; source: rice protoplasts, transformed (PEG) with a pDuEx vector (35S promoter), in cells
As for B1, the “fold RLU over a non-interaction protein pair” value is 10 fold and the “fold RLU over mock transformed protoplasts” value amounted to 21 fold.
